Source: paper PMC11933459 (Nature Communications, 2025)

What was measured:
cryo-EM structure [1] = target: the molecule itself; assay: cryo-EM structure
cryo-EM structure [2] = target: the molecule itself; assay: cryo-EM structure; remark: listed apart in the source

B1: Full-length human XPR1 (wild type), purified, tags removed (natural protein, UniProt Q9UBH6 1-696, looked up)
chain: MKFAEHLSAHITPEWRKQYIQYEAFKDMLYSAQDQAPSVEVTDEDTVKRYFAKFEEKFFQTCEKELAKINTFYSEKLAEAQRRFATLQNELQSSLDAQKESTGVTTLRQRRKPVFHLSHEERVQHRNIKDLKLAFSEFYLSLILLQNYQNLNFTGFRKILKKHDKILETSRGADWRVAHVEVAPFYTCKKINQLISETEAVVTNELEDGDRQKAMKRLRVPPLGAAQPAPAWTTFRVGLFCGIFIVLNITLVLAAVFKLETDRSIWPLIRIYRGGFLLIEFLFLLGINTYGWRQAGVNHVLIFELNPRSNLSHQHLFEIAGFLGILWCLSLLACFFAPISVIPTYVYPLALYGFMVFFLINPTKTFYYKSRFWLLKLLFRVFTAPFHKVGFADFWLADQLNSLSVILMDLEYMICFYSLELKWDESKGLLPNNSEESGICHKYTYGVRAIVQCIPAWLRFIQCLRRYRDTKRAFPHLVNAGKYSTTFFMVTFAALYSTHKERGHSDTMVFFYLWIVFYIISSCYTLIWDLKMDWGLFDKNAGENTFLREEIVYPQKAYYYCAIIEDVILRFAWTIQISITSTTLLPHSGDIIATVFAPLEVFRRFVWNFFRLENEHLNNCGEFRAVRDISVAPLNADDQTLLEQMMDQDDGVRNRQKNRSWKYNQSISLRRPRLASQSKARDTKVLIEDTDDEANT
**Q.** Which “stoichiometry N” value (cryo-EM structure [1]) does the source give for B1 here?
**A.** The value was 2.

B2: XPR1-E622A/F623A mutant (full-length human XPR1), purified, tags removed (natural protein, UniProt Q9UBH6 1-696, looked up)
chain: MKFAEHLSAHITPEWRKQYIQYEAFKDMLYSAQDQAPSVEVTDEDTVKRYFAKFEEKFFQTCEKELAKINTFYSEKLAEAQRRFATLQNELQSSLDAQKESTGVTTLRQRRKPVFHLSHEERVQHRNIKDLKLAFSEFYLSLILLQNYQNLNFTGFRKILKKHDKILETSRGADWRVAHVEVAPFYTCKKINQLISETEAVVTNELEDGDRQKAMKRLRVPPLGAAQPAPAWTTFRVGLFCGIFIVLNITLVLAAVFKLETDRSIWPLIRIYRGGFLLIEFLFLLGINTYGWRQAGVNHVLIFELNPRSNLSHQHLFEIAGFLGILWCLSLLACFFAPISVIPTYVYPLALYGFMVFFLINPTKTFYYKSRFWLLKLLFRVFTAPFHKVGFADFWLADQLNSLSVILMDLEYMICFYSLELKWDESKGLLPNNSEESGICHKYTYGVRAIVQCIPAWLRFIQCLRRYRDTKRAFPHLVNAGKYSTTFFMVTFAALYSTHKERGHSDTMVFFYLWIVFYIISSCYTLIWDLKMDWGLFDKNAGENTFLREEIVYPQKAYYYCAIIEDVILRFAWTIQISITSTTLLPHSGDIIATVFAPLEVFRRFVWNFFRLENEHLNNCGAARAVRDISVAPLNADDQTLLEQMMDQDDGVRNRQKNRSWKYNQSISLRRPRLASQSKARDTKVLIEDTDDEANT
**Q.** Does B2 bind (cryo-EM structure [2])?
**A.** Result: binds
